Columns and labels:
[1] = target: cce_0566 from Cyanothece sp. ATCC 51142 (DUF269 family protein) (Cyanothece sp. ATCC 51142); assay: SEC
[2] = target: cce_0566 from Cyanothece sp. ATCC 51142 (DUF269 family protein) (Cyanothece sp. ATCC 51142); assay: NMR 15N relaxation
[3] = target: cce_0566 from Cyanothece sp. ATCC 51142 (DUF269 family protein) (Cyanothece sp. ATCC 51142); assay: crystal structure

Measured: stoichiometry N

cce_0566 from Cyanothece sp. ATCC 51142 (DUF269 family protein) (natural protein)
2: all assays above

Reference: publication PMC3641832
